Experimental data from publication doi:10.1101/2023.02.23.529646 (bioRxiv, 2023).

Tests used:
[1] = molecular target: T1, ACAD9WT (res. 38-621) (human, UniProt Q9H845 38-621); assay: mass photometry
T1 sequence: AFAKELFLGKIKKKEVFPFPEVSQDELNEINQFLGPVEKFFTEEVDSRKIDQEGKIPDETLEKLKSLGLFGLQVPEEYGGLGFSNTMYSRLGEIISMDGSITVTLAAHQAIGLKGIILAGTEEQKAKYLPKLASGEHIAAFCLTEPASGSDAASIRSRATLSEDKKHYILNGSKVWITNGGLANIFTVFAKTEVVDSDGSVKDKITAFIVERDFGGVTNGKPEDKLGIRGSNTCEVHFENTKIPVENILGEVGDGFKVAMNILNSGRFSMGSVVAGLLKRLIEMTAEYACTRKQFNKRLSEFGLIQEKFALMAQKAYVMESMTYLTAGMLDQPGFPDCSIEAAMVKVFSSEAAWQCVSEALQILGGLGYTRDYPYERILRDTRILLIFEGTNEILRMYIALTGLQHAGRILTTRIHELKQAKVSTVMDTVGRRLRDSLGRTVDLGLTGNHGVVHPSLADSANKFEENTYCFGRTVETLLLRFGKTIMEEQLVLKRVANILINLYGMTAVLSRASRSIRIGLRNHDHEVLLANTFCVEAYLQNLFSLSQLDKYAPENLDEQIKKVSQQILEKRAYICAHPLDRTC

[2] = molecular target: T2, VLCAD_(ACAD9) (human, UniProt P49748 72-655, 437MGGMGFM443 to 437LGGLGYT443); assay: mass photometry
T2 sequence: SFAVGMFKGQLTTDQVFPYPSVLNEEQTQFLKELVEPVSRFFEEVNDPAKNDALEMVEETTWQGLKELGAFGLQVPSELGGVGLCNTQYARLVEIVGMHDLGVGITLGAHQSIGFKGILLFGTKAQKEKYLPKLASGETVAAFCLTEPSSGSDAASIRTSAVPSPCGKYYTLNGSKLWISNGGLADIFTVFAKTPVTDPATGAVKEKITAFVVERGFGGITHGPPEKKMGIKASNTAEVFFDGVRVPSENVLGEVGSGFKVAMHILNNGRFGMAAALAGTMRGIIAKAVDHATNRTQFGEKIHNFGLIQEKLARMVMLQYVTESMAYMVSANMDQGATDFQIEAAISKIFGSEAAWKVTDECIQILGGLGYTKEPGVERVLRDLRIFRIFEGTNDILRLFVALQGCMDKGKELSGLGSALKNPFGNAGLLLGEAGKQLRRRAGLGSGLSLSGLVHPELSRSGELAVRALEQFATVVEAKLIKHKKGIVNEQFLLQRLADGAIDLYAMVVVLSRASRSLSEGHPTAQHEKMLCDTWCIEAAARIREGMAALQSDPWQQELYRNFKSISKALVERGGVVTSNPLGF

[3] = molecular target: T1, ACAD9WT (res. 38-621); assay: ITC
[4] = molecular target: T3, ACAD9_(S191A) (human, UniProt Q9H845 38-621, S191A); assay: ITC
T3 sequence: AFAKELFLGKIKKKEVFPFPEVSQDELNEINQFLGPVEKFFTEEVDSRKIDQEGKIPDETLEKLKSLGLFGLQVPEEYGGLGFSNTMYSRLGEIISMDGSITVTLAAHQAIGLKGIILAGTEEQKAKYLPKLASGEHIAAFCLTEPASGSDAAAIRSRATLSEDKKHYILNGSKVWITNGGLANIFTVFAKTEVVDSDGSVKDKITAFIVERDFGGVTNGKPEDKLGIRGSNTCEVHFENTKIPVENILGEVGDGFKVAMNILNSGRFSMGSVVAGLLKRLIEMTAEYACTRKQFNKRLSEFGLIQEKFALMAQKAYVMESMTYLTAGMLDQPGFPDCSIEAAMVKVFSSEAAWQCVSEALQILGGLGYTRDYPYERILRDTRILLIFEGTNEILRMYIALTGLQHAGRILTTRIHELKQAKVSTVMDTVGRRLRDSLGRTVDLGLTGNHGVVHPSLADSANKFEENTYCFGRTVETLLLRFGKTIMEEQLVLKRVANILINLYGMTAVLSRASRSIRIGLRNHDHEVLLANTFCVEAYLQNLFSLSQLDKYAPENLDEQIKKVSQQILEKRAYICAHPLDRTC

B1: ECSIT_(CTER) (residues 221-431) (domain or fragment)
chain: QDPVELAMFGLRHMEPDLSARVTIYQVPLPKDSTGAADPPQPHIVGIQSPDQQAALARHNPARPVFVEGPFSLWLRNKCVYYHILRADLLPPEEREVEETPEEWNLYYPMQLDLEYVRSGWDNYEFDINEVEEGPVFAMCMAGAHDQATMAKWIQGLQETNPTLAQIPVVFRLAGSTRELQTSSAGLEEPPLPEDHQEEDDNLQRQQQGQS
- stoichiometry N [1]: 2 ECSIT_(CTER) monomers per ACAD9 dimer
- binding result [2]: binds
- Kd [3]: 1450 nM
- Kd [4]: 3930 nM
